From a protein production outcome set (Wang et al. 2014)

Assay: label from the status in PepcDB records

## MSRNYKEDQTNEVEALDSIYCGDMEILATEPHHKFQIPIATEEYSSEEPEKGLACKLVFTFTATYPDGAPVVEIEEPENFEDMFETRLLEHLQKTIEENLGMEMIFSLVSSAQEWLNERWDEHKFHQEELREQKLREIEEEERKKFEGTRVTVESFLKWKLEFEESTGIAAKREKNNVSKKQTGRELFMCDNTLNDSDIKFLLEAGENIENVKIDETLFQDIGELDLDDDDDEDWVPGADDDDD
  protein production: failed

## MSRPDDIDVRPIAEAETADWIRALNTGFLRSPEVSEREVADRSSYLVPARTLGAFDNGRCVATFRSFPQELTAVGGASVPADAISNVTVTATHRRRGLLTRMMAQDLAAAKERGDVVATLIAAEYPIYGRYGFGAATHSTEWTIDVPRTGLDPRWSGPGDGGRIDLVDGEDVRKAGPELHERLRRTQPGAVSRDERWWQVHTGVVRLDRSPWTEPFYAVYRSASGEVEGLVSYECDDHWGDAKQPQNTAKVNWLIATTPAAERALWHYLCSIDWITKVRTGWRAPDDLLPHFLPDPRAARVTTHADWLWVRILDVVRALEARTYDGSGTLVLDVVDRHGLAGGRYRLTVGPDGAVCEPTTRDAGLTLDVGELAALWLGDASAVRLAALGRVREQQEGAASVADALLRTSGRPWCPDMF
  protein production: not failed

## MSRQIFYMPFSLRFLFLLIIITIFGLGSLFLGVIVSAFMKIGFSAEDALLILFLSLLGSGINIPLTTLKSDIPVVKDNYIKFFGISYRIPTRQIVRNETLLAINVGGAVIPVLISAYLLTQFPSSLLLAGAGVAIVAIVTHSVARPIKGVGIATPALIPPLTSVLSAVLLTSIVHIPGCPAEPCRVIIAYTGGVLGTLIGADLLNLGKIKNLGAPVASIGGAGTFDGIFLSGFIALLLI
  protein production: failed

## MSRSAFTALLLSCVLLALSMPARADDLPYRFGLGKADITGEAAEVGMMGYSSLEQKTAGIHMRQWARAFVIEEAASGRRLVYVNTDLGMIFQAVHLKVLARLKAKYPGVYDENNVMLAATHTHSGPGGFSHYAMYNLSVLGFQEKTFNAIVDGIVRSIERAQARLQPGRLFYGSGELRNANRNRSLLSHLKNPDIVGYEDGIDPQMSVLSFVDANGELAGAISWFPVHSTSMTNANHLISPDNKGYASYHWEHDVSRKSGFVAAFAQTNAGNLSPNLNLKPGSGPFDNEFDNTREIGLRQFAKAYEIAGQAQEEVLGELDSRFRFVDFTRLPIRPEFTDGQPRQLCTAAIGTSLAAGSTEDGPGPLGLEEGNNPFLSALGGLLTGVPPQELVQCQAEKTILADTGNKKPYPWTPTVLPIQMFRIGQLELLGAPAEFTVMAGVRIRRAVQAASEAAGIRHVVFNGYANAYASYVTTREEYAAQEYEGGSTLYGPWTQAAYQQLFVDMAVALRERLPVETSAIAPDLSCCQMNFQTGVVADDPYIGKSFGDVLQQPRESYRIGDKVTVAFVTGHPKNDLRTEKTFLEVVNIGKDGKQTPETVATDNDWDTQYRWERVGISASKATISWSIPPGTEPGHYYIRHYGNAKNFWTQKISEIGGSTRSFEVLGTTP
  protein production: failed

## MSRSALSFAVFLAVVLSILGGMHAYLWLRLVRDPGLPEPWRRTGTVLLALLAVAIPVGMFSVRLASGWAARWLPVAAFTWLGLAFILFCAVAAIDLARLSAQLALFMGDWLRQVPDPPADPGRRLFVARAVAGGAVIAAGGSAALAFRSATGPAEIHEVAVRLDRLPPALSGLTIAQISDLHVGPAIREREVRRVVEQTNALRPDVVAITGDLVDGSVRELGHAVAELARLRARHGVFFVTGNHEYYSGVDAWVAELQRLGIRVLRNERVTVGDAGASIDLAGVDDWSSGQFGNGHGMNLPRALDGRDPDRSLVLLAHQPRAIGEAVRAGVELQLSGHTHGGQIFPFNLLVRAAYPYVKGLYPHAEGSAHGQIFVSRGTGYWGPPMRLGSPPEIARIVLT
  protein production: failed

## MSSDAIETIETYLRPGAWVEDAAGPLYVRLRKRIEQGIDSGLLAKSAPLPAEREIASLTGLSRVTVRRAMQELVDRGIIVQRQGSGSFVADAAPRVEQSLSHLTSFTEDMERRGLNVTSEWLTRGVFIPSPEEVMALALSSGEQVARVARLRRAEGRPMAIERASLPTDILPDPELVSSSLYAVLERDGNRPVRALQRISAVNLGAEDAALLGVEPGTAGLRIIRTSYLPNRRVIEYTRSLYRADAYDFVAELRLGNS
  protein production: failed

## MSSDDAWTAAALPDQSGRRVVVTGANSGLGFEATRAFARAGAHVVMACRSTERGEDARDDIVAELPGASLTVHELDLAALDSVAAFADWFTAEFDSLHVLANNAGVMAIPRSETADGFETQFGVNHLGHVALTAGLLGVLRRTSGETRVVTQSSGAHRRGRIDFEDLQHEAEYGKWEAYSQSKLANLLFAYELDRRLRAASASVTSVACHPGYAATNLQLRGPQAAGSRLRLLAMRAANALVGQSAEQGAWPLLYAATNPSIDGGEYIGPGGVLNMRGHPERQQPSARSRDEDTARRLWTVSADRTGVDFDLPDPA
  protein production: failed

## MSSERLIYLPLGGAGEIGMNAYVYGYGKPDAERLIVVDMGVAFPDMDGSPGVDLILPDITWLQERRDRIEAVFVTHAHEDHVGAVAHTYEKLGAPVYARAFTANIARRKMAEHGHPEDAVHTVSPWPETVSAGPFKVSFLPISHSIPESSAMVIDTPEGRVIHSGDFKLDETPLVGEAFDPELWAEVSKEGVKALICDSTNVFSQHPGRSEASVGPEITNLVQSAEGMVVATTFASNVARVKTLADAGVRAGRSIVLMGRAMRRMIEAAAETGVLQDFPSVVSPEDARSIPRENLMLLVTGSQGERRAASAQLARGKYQGMEMKEGDLFPFSSKTIPGNEKGVIRIINAFSELGVDVVDDSSGLYHVSGHANRPDLERLSEIVNPQVVIPMHGEHRHLREHVKIAEQNGRTGVLAVNGMMVDLSGNQPKIAEYVETGRTYLDGTVQIGALDGVVRDRIRMALNGHVVVTLIVDEDDEPLGDPWCELKGLPETGRSKASLVDVLEADLGQWLGRADPKTMRDDDKLNEGLRRVVRQTSQDEIGKKPEVSVIVSRLS
  protein production: failed

## MSSFFTGKDDSAVEELLSQAKDQYVLEQVAKINCSGFTDDTALPTNPETRLRRLKSLPVSRTDSVSSSPKKLLSHSNSMASHPEKKYRGNVSSVSSFSIQVGKSCPLDSSVEETQIFSKTKRNQSVKSRGGLGESSGSKRIGSSSSRFSCGNVSSTGSSSSRFSREGNISTATKTLKLPC
  protein production: not failed

## MSSKPLLTLQELAAQNILRNEALAISALQYLPELFLPQLLKQAYDGNHLKVLRAIVSSWPFPRLPLGALKKRTPYLETQLQVVLEEVDKLLIQEVHPREYKLEVLDLRSVGQNYLNVWPGAMDDWLPKTTQTDPCCSKTVMTQPLKVLVDLQLNNRGQSRLFSYLVQWSDRRKGLLQLYCNKLQIWSPSQQNYRKLSQKVNLDYVETLGLHSSCSPSFLLNFAPYLRQMRNLRKLALSNIREEHIISPEKRRCIITRFTLQILKLESLQKLHLDAVCFLEGHLDQLLGSVKTSLDELAVTHCNLSVSEWSHFSEFPCVSQLQQLNLENVRLTGLSPEPLQVLLVKAGPTLVALDLEDCHLEDGQLYAILPALSKCFKLTKFSFYGNQISMLAMKDLLHHTASLIHLRLELYPVPQDSYDYHGTPLMQRMQQHCDELMNLLKTFRNPGRVFFGTDRCDQCCNRYIYNKTIMCNCRRSY
  protein production: failed

## MSSKQHCVKLNDGHLIPALGFGTYKPKEVPKSKSLEAACLALDVGYRHVDTAYAYQVEEEIGQAIQSKIKAGVVKREDLFVTTKLWCTCFRPELVKPALEKSLKKLQLDYVDLYIMHYPVPMKSGDNDFPVNEQGKSLLDTVDFCDTWERLEECKDAGLVKSIGVSNFNHRQLERILNKPGLKYKPVCNQVECHLYLNQRKLLDYCESKDIVLVAYGALGTQRYKEWVDQNSPVLLNDPVLCDVAKKNKRSPALIALRYLIQRGIVPLAQSFKENEMRENLQVFGFQLSPEDMKTLDGLNKNFRYLPAEFLVDHPEYPFVEEY
  protein production: not failed

## MSSLRHRRYVLGGLLAAIGVLAAAVLWNVVGTVFFAVTVAYVLYPARQRLVNRGVPRRVASGLLTAAAFLTVVVLLAPIAWTIFRQRGAILEFLNNLPDELPVEAFGFVVTIDVADLVDTTADTLQSIAISLAADAIFLALQLLMFALVLYGLLLRPNAVGRAAFRVTPSPYHDILVALHRRIAGTLYALYVIQAATAVITFPLALIVFYLLGYPDVFVLAVLAALLQFIPIVGPGMLAAGLAGHDVLVGMPHRAVGVIILGPLFVGLLPDLLVRPRLAASKAKLPASLYFVGFVGGVLTVGVIGIIAGPLVVALLVEAVNLLSERNQSAA
  protein production: failed

## MSSMNANAENSESKPKSGNDPLDHEGGDSSAASEDPNKSKTVSSDDDLSETNKEKEEEDCEECWLSRYLKKGDCKDAFIEVDHCREVKDDGTNCRDARLKLITCMYTNVDYYGPFLAMQKEMRTQSLKELEQGEEAAAAAKKKEEEEETKGK
  protein production: failed
